Measured values published in patent US20240181094A1, “[161Tb]-BASED RADIOPEPTIDES” (priority 2021, published 2024).
Like-named read-outs stand apart in the source and are kept apart here. Starred links: 1 amine or outer side, 2 acyl side, 3 side chain; linkers in the order of their positions; H or OH if unused. Positions of bridges follow the written chain, without caps; N, C: chain ends. Non-standard residues stand in square brackets, D forms with d. Residues, ends and D or L forms follow the SMILES beside them. *: point of attachment. DOTA = O=C(O)CN1CCN(CC(=O)O)CCN(CC(=O)*)CCN(CC(=O)O)CC1; dPhe(4-NHCONH2) = NC(=O)Nc1ccc(C[C@@H](N)C(=O)O)cc1; X1 = NC(=O)Nc1ccc(CC(N[*:1])C(=O)[*:2])cc1; Phe(4-Cl) = N[CH](Cc1ccc(Cl)cc1)C(=O)O

Tests used:
[1] = system: AR42J tumor-bearing mice; details: 0.2 nmol/mouse
Description: Five-week-old female, athymic nude mice (CD-1 Foxn-1/nu) were obtained from Charles River Laboratories (Sulzfeld, Germany). Mice were subcutaneously inoculated with AR42 J tumor cells (5×10^6 cells in 100 μl PBS) for SPECT/CT imaging, biodistribution and therapy studies. The SPECT/CT and biodistribution studies were performed 10-14 days after tumor cell inoculation when the tumor size reached a volume of ˜250 mm^3.
The mice were sacrificed at 0.5 h, 2 h, 4 h, 24 h and 48 h p.i, selected tissues and organs were collected, weighed, and the accumulated activity was counted using a γ-counter (Perkin Elmer). The decay-corrected data were listed as % IA/g. The data were analyzed for significance using a two-way ANOVA with Tukey's multiple comparison post-tests. A p-value of <0.05 was considered statistically significant.

[2] = mouse, in vivo
Description: Early side effects were assessed based on the RBW of each mouse which was monitored every second day. When an endpoint was reached or at the end of the study (after 49 days), relevant organs and tissues were collected, weighed and put into relation to the brain mass and body weight of the respective mouse. This allowed comparison of organ-to-brain and organ-to-body mass weight ratios. In addition, blood plasma parameters from blood collected immediately after euthanasia were measured.
RBW, organ mass and mass ratios at the endpoint. The RBW was monitored every second day. Mice were euthanized when a predefined endpoint criterion was reached or when the study was terminated at Day 49. RBWs, organ masses, organ mass ratios (kidney-to-brain, liver-to-brain and spleen-to-brain) and organ mass to body weight ratios (kidney-to-body mass, liver-to-body mass and spleen-to-body mass) were analyzed for significance using a one-way ANOVA test with a Tukey's multiple comparisons post-test. A p-value of <0.05 was considered as statistically significant.
Blood plasma chemistry: Immediately before euthanasia of the mice that reached the endpoint, blood was sampled from the retrobulbar vein. The values of creatinine (CRE), blood urea nitrogen (BUN), alkaline phosphatase (ALP), total bilirubin (TBIL) and albumin (ALB) were determined in the plasma after centrifugation of the blood using a dry chemistry analyzer (DRI-CHEM 4000 i, FUJIFILM, Japan). The average blood plasma parameters of each group were analyzed for significance using a one-way ANOVA test with a Tukey's multiple comparisons post-test. A p-value of <0.05 was considered as statistically significant.

[3] = in vivo; details: female, athymic nude CD-1 Foxn-1/nu, mouse, iv, 1 nmol/mouse, total radioactivity
[4] = system: AR42J tumor-bearing mice; assay: Biodistribution studies: assessment of the optimum injected molar amount; details: 2 h p.i.; for kidney uptake: irrespective of the injected amount of peptide
[5] = system: AR42 J tumor-bearing mice; assay: Preclinical therapy study in AR42 J tumor-bearing mice; assay type: in vivo; details: 2 x 10 MBq; for tumor doubling time: 0.2 nmol, regrowth phase, fitted exponential curve

Compound: CC(O)C1NC(=O)C(CCCCN)NC(=O)C(Cc2ccc(NC(N)=O)cc2)NC(=O)C(Cc2ccc(O)cc2)NC(=O)C(NC(=O)C(Cc2ccc(Cl)cc2)NC(=O)CN2CCN(CC(=O)O)CCN(CC(=O)O)CCN(CC(=O)O)CC2)CSSCC(C(=O)NC(Cc2ccc(O)cc2)C(N)=O)NC1=O (stereo not shown) [metal not drawn] ({DOTA}-[Phe(4-Cl)]CY[X1]KTCY-NH2; disulfide 2-7; configuration not given here)
- Blood uptake ([1]; 0.5 h p.i.): 1.3 ± 0.2 % IA/g
- Blood uptake ([1]; 2 h p.i.): ≤0.10 % IA/g
- Muscle uptake ([1]; 2 h p.i.): ≤0.10 % IA/g
- Spleen uptake ([1]; 2 h p.i.): 0.41 ± 0.08 % IA/g
- Blood uptake ([1]; 4 h p.i.): ≤0.10 % IA/g
- Heart uptake ([1]; 4 h p.i.): ≤0.10 % IA/g
- Kidneys uptake ([1]; 4 h p.i.): 9.0 ± 1.2 % IA/g
- Muscle uptake ([1]; 4 h p.i.): ≤0.10 % IA/g
- Blood uptake ([1]; 24 h p.i.): ≤0.10 % IA/g
- Heart uptake ([1]; 24 h p.i.): ≤0.10 % IA/g
- Muscle uptake ([1]; 24 h p.i.): ≤0.10 % IA/g
- Blood uptake ([1]; 48 h p.i.): ≤0.10 % IA/g
- Heart uptake ([1]; 48 h p.i.): ≤0.10 % IA/g
- Muscle uptake ([1]; 48 h p.i.): ≤0.10 % IA/g
- ALB (albumin), plasma [2]: 22 ± 1 g/L
- ALP (alkaline phosphatase), plasma [2]: 65 ± 15 U/L
- Organ mass Brain [2]: 465 ± 30 mg
- Organ mass Kidneys [2]: 332 ± 46 mg
- Organ mass Liver [2]: 1275 ± 254 mg
- Organ mass Spleen [2]: 85 ± 27 mg

Compound: C[C@@H](O)[C@@H]1NC(=O)[C@H](CCCCN)NC(=O)[C@@H](Cc2ccc(NC(N)=O)cc2)NC(=O)[C@H](Cc2ccc(O)cc2)NC(=O)[C@H](NC(=O)[C@H](Cc2ccc(Cl)cc2)NC(=O)CN2CCN(CC(=O)O)CCN(CC(=O)O)CCN(CC(=O)O)CC2)CSSC[C@@H](C(=O)N[C@H](Cc2ccc(O)cc2)C(N)=O)NC1=O [metal not drawn] ({DOTA}-[Phe(4-Cl)][dC]Y[dPhe(4-NHCONH2)]KTC[dY]-NH2; disulfide 2-7)
- tissue uptake at 2 h [3]: ≤ 0.1 %ID/g
- tissue uptake at 24 h [3]: ≤ 0.1 %ID/g
- ALB (albumin), plasma [2]: 23 ± 1 g/L
- ALP (alkaline phosphatase), plasma [2]: 66 ± 5 U/L
- CRE (creatinine), plasma [2]: 19 µmol/L
- Organ mass Brain [2]: 471 ± 30 mg
- Organ mass Kidneys [2]: 336 ± 13 mg
- Organ mass Liver [2]: 1254 ± 106 mg
- Organ mass Spleen [2]: 92 ± 17 mg

Compound: C[C@@H](O)[C@@H]1NC(=O)[C@H](CCCCN)NC(=O)[C@@H](Cc2c[nH]c3ccccc23)NC(=O)[C@H](Cc2ccc(O)cc2)NC(=O)[C@@H](NC(=O)[C@@H](Cc2ccccc2)NC(=O)CN2CCN(CC(=O)O)CCN(CC(=O)O)CCN(CC(=O)O)CC2)CSSC[C@@H](C(=O)N[C@H](CO)[C@@H](C)O)NC1=O [[^161Tb]Tb-DOTATOC] [metal not drawn]
- AR42J Tumor uptake ([4]; 0.040 nmol/mouse): 16 ± 4 % IA/g
- Adrenals uptake ([4]; 0.040 nmol/mouse): 0.65 ± 0.08 % IA/g
- Intestines uptake ([4]; 0.040 nmol/mouse): 0.52 ± 0.15 % IA/g
- Kidneys uptake ([4]; 0.040 nmol/mouse): 9.0 ± 2.0 % IA/g
- Liver uptake ([4]; 0.040 nmol/mouse): 0.22 ± 0.02 % IA/g
- Pancreas uptake ([4]; 0.040 nmol/mouse): 2.1 ± 0.5 % IA/g
- Spleen uptake ([4]; 0.040 nmol/mouse): 0.50 ± 0.11 % IA/g
- Stomach uptake ([4]; 0.040 nmol/mouse): 2.9 ± 1.1 % IA/g
- AR42J Tumor uptake ([4]; 0.20 nmol/mouse): 14 ± 1 % IA/g
- Adrenals uptake ([4]; 0.20 nmol/mouse): 0.43 ± 0.11 % IA/g
- Blood uptake ([4]; 0.20 nmol/mouse): ≤0.10 % IA/g
- Femur uptake ([4]; 0.20 nmol/mouse): 0.12 ± 0.03 % IA/g
- Intestines uptake ([4]; 0.20 nmol/mouse): 0.24 ± 0.01 % IA/g
- Kidneys uptake ([4]; 0.20 nmol/mouse): 9.4 ± 0.4 % IA/g
- Liver uptake ([4]; 0.20 nmol/mouse): 0.19 ± 0.03 % IA/g
- Lung uptake ([4]; 0.20 nmol/mouse): 0.47 ± 0.05 % IA/g
- Pancreas uptake ([4]; 0.20 nmol/mouse): 1.5 ± 0.2 % IA/g
- Spleen uptake ([4]; 0.20 nmol/mouse): 0.18 ± 0.02 % IA/g
- AR42J Tumor uptake ([4]; 1.0 nmol/mouse): 8.2 ± 0.2 % IA/g
- Adrenals uptake ([4]; 1.0 nmol/mouse): 0.25 ± 0.06 % IA/g
- Blood uptake ([4]; 1.0 nmol/mouse): ≤0.10 % IA/g
- Femur uptake ([4]; 1.0 nmol/mouse): ≤0.10 % IA/g
- Heart uptake ([4]; 1.0 nmol/mouse): ≤0.10 % IA/g
- Intestines uptake ([4]; 1.0 nmol/mouse): 0.21 ± 0.13 % IA/g
- Kidneys uptake ([4]; 1.0 nmol/mouse): 9.9 ± 1.3 % IA/g
- Liver uptake ([4]; 1.0 nmol/mouse): 0.17 ± 0.01 % IA/g
- Lung uptake ([4]; 1.0 nmol/mouse): 0.27 ± 0.03 % IA/g
- Muscle uptake ([4]; 1.0 nmol/mouse): ≤0.10 % IA/g
- Pancreas uptake ([4]; 1.0 nmol/mouse): 0.71 ± 0.07 % IA/g
- Spleen uptake ([4]; 1.0 nmol/mouse): 0.11 ± 0.02 % IA/g
- Stomach uptake ([4]; 1.0 nmol/mouse): 0.74 ± 0.38 % IA/g
- kidney uptake [4]: ~10 % IA/g
- ALB (albumin), plasma [2]: 23 ± 2 g/L
- ALP (alkaline phosphatase), plasma [2]: 76 ± 21 U/L
- BUN (blood urea nitrogen), plasma [2]: 5.8 ± 1.0 mmol/L
- CRE (creatinine), plasma [2]: <18 µmol/L
- Organ mass Brain [2]: 440 ± 23 mg
- Organ mass Kidneys [2]: 352 ± 27 mg
- Organ mass Liver [2]: 1195 ± 57 mg
- Organ mass Spleen [2]: 86 ± 19 mg
- Median survival ([5]; 0.2 nmol (Day 0, Day 7)): 21 days
- tumor growth delay ([5]; 0.2 nmol (Day 0, Day 7)): 9.0 ± 5.5 days
- tumor doubling time [5]: 3.4 ± 3.6 days

Compound: C[C@@H](O)[C@@H]1NC(=O)[C@H](CCCCN)NC(=O)[C@@H](Cc2c[nH]c3ccccc23)NC(=O)[C@H](Cc2ccc(O)cc2)NC(=O)[C@@H](NC(=O)[C@@H](Cc2ccccc2)NC(=O)CN2CCN(CC(=O)O)CCN(CC(=O)O)CCN(CC(=O)O)CC2)CSSC[C@@H](C(=O)N[C@H](CO)[C@@H](C)O)NC1=O [[^177Lu]Lu-DOTATOC] [metal not drawn]
- AR42J Tumor uptake ([4]; 0.040 nmol/mouse): 18 ± 3 % IA/g
- Adrenals uptake ([4]; 0.040 nmol/mouse): 0.65 ± 0.10 % IA/g
- Blood uptake ([4]; 0.040 nmol/mouse): ≤0.10 % IA/g
- Femur uptake ([4]; 0.040 nmol/mouse): 0.17 ± 0.05 % IA/g
- Heart uptake ([4]; 0.040 nmol/mouse): ≤0.10 % IA/g
- Intestines uptake ([4]; 0.040 nmol/mouse): 0.33 ± 0.05 % IA/g
- Kidneys uptake ([4]; 0.040 nmol/mouse): 10 ± 2 % IA/g
- Liver uptake ([4]; 0.040 nmol/mouse): 0.18 ± 0.02 % IA/g
- Lung uptake ([4]; 0.040 nmol/mouse): 1.1 ± 0.2 % IA/g
- Muscle uptake ([4]; 0.040 nmol/mouse): ≤0.10 % IA/g
- Pancreas uptake ([4]; 0.040 nmol/mouse): 1.9 ± 0.2 % IA/g
- Spleen uptake ([4]; 0.040 nmol/mouse): 0.39 ± 0.11 % IA/g
- Stomach uptake ([4]; 0.040 nmol/mouse): 1.7 ± 0.3 % IA/g
- AR42J Tumor uptake ([4]; 0.20 nmol/mouse): 17 ± 4 % IA/g
- Adrenals uptake ([4]; 0.20 nmol/mouse): 0.51 ± 0.35 % IA/g
- Femur uptake ([4]; 0.20 nmol/mouse): 0.10 ± 0.01 % IA/g
- Heart uptake ([4]; 0.20 nmol/mouse): ≤0.10 % IA/g
- Intestines uptake ([4]; 0.20 nmol/mouse): 0.40 ± 0.25 % IA/g
- Kidneys uptake ([4]; 0.20 nmol/mouse): 10 ± 3 % IA/g
- Liver uptake ([4]; 0.20 nmol/mouse): 0.15 ± 0.03 % IA/g
- Lung uptake ([4]; 0.20 nmol/mouse): 0.63 ± 0.03 % IA/g
- Muscle uptake ([4]; 0.20 nmol/mouse): ≤0.10 % IA/g
- Pancreas uptake ([4]; 0.20 nmol/mouse): 1.7 ± 0.5 % IA/g
- Spleen uptake ([4]; 0.20 nmol/mouse): 0.15 ± 0.02 % IA/g
- Stomach uptake ([4]; 0.20 nmol/mouse): 1.1 ± 0.2 % IA/g
- AR42J Tumor uptake ([4]; 1.0 nmol/mouse): 8.9 ± 1.5 % IA/g
- Adrenals uptake ([4]; 1.0 nmol/mouse): 0.28 ± 0.08 % IA/g
- Blood uptake ([4]; 1.0 nmol/mouse): ≤0.10 % IA/g
- Femur uptake ([4]; 1.0 nmol/mouse): ≤0.10 % IA/g
- Heart uptake ([4]; 1.0 nmol/mouse): ≤0.10 % IA/g
- Intestines uptake ([4]; 1.0 nmol/mouse): 0.20 ± 0.05 % IA/g
- Kidneys uptake ([4]; 1.0 nmol/mouse): 11 ± 1 % IA/g
- Liver uptake ([4]; 1.0 nmol/mouse): 0.26 ± 0.07 % IA/g
- Lung uptake ([4]; 1.0 nmol/mouse): 0.37 ± 0.06 % IA/g
- Muscle uptake ([4]; 1.0 nmol/mouse): ≤0.10 % IA/g
- Pancreas uptake ([4]; 1.0 nmol/mouse): 0.80 ± 0.13 % IA/g
- Spleen uptake ([4]; 1.0 nmol/mouse): 0.15 ± 0.03 % IA/g
- Stomach uptake ([4]; 1.0 nmol/mouse): 0.65 ± 0.11 % IA/g
- kidney uptake [4]: ~10 % IA/g
- ALB (albumin), plasma [2]: 24 ± 5 g/L
- ALP (alkaline phosphatase), plasma [2]: 77 ± 8 U/L
- BUN (blood urea nitrogen), plasma [2]: 6.3 ± 0.9 mmol/L
- CRE (creatinine), plasma [2]: <18 µmol/L
- Organ mass Brain [2]: 453 ± 31 mg
- Organ mass Kidneys [2]: 342 ± 23 mg
- Organ mass Liver [2]: 1121 ± 123 mg
- Organ mass Spleen [2]: 90 ± 17 mg
- tumor growth delay ([5]; 0.2 nmol (Day 0, Day 7)): 6.0 ± 4.4 days
- tumor doubling time [5]: 3.4 ± 0.8 days
